The supplement of paper PMC7877785
± gives the uncertainty stated by the source.

Test: self-splicing fitness, log relative to wild type (ln ratio); higher = more splicing; Tetrahymena group I intron in knt gene, E. coli kanamycin selection, DiMSum; sequences stand for … in CUCUCU…GGAGGGAAAAGUUAUCAGGCAUGCACCUGGUAGCUAGUCUUUAAACCAAUAGAUUGCAUCGGUUUAAAAGGCAAGACCGUCAAAUUGCGGGAAAGGGGUCAACAGCCGUUCAGUACCAAGUCUCAGGGGAAACUUUGAGAUGGCCUUGCAAAGGGUAUGGUAAUAAGCUGACGGACAUGGUCCUAACCACGCAGCCAAGUCCUAAGUCAACAGAUCUUCUGUUGAUAUGGAUGCAGUUCACAGACUAAAUGUCGGUCGGGGAAGAUGUAUUCUUCUCAUAAGAUAUAGUCGGACCUCUCCUUAAUGGGAGCUAGCGGAUGAAGUGAUGCAACACUGGAGCCGCUGGGAACUAAUUUGUAUGCGAAAGUAUAUUGAUUAGUUUUGGAGUACUCGUGGUCG
Summary of the method: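 Six replicate transformations of E. coli BL21(DE3) with a pET-22b(+) library were grown overnight at 37°C or 30°C. The library randomised all eight P1ex-region intron nucleotides, the intron lying in the knt kanamycin-resistance gene, and plates were LB agar with or without 25 μg/mL kanamycin plus 100 μg/mL carbenicillin, 50 μM IPTG and 0.2% rhamnose. Pooled colonies were amplicon-sequenced on an Illumina HiSeq 2500, and fitness is the DiMSum error-weighted combination of wild-type-normalised replicate fold changes, kanamycin versus none.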

Sequence | self-splicing fitness (ln) (30 °C) | self-splicing fitness (ln) (37 °C)
CCGAAGCAAUAUUACGCACG | -1.19 ± 0.074 | -0.509 ± 0.092
CCGAAGCAAUAUUACGCGCU | – | -2.26 ± 0.42
CCGAAGCAAUAUUACGCGGC | -3.55 ± 0.28 | -2.27 ± 0.3
CCGAAGCAAUAUUACGCUCC | -2.86 ± 0.44 | –
CCGAAGCAAUAUUACGCUUC | -3.15 ± 0.27 | -3.2 ± 0.34
CCGAAGCAAUAUUACGGAGU | -1.88 ± 0.16 | -2.98 ± 0.25
CCGAAGCAAUAUUACGGGAU | -3.69 ± 0.26 | -2.47 ± 0.22
CCGAAGCAAUAUUACGGGCG | -0.886 ± 0.066 | -0.235 ± 0.074
CCGAAGCAAUAUUACGGUAG | -2.87 ± 0.11 | -1.3 ± 0.095
CCGAAGCAAUAUUACGUAAU | -3.37 ± 0.24 | -2.54 ± 0.18
CCGAAGCAAUAUUACGUACA | -3.19 ± 0.43 | -1.75 ± 0.34
CCGAAGCAAUAUUACGUCCG | -0.46 ± 0.11 | -0.429 ± 0.095
CCGAAGCAAUAUUACGUCGU | -1.94 ± 0.074 | -0.687 ± 0.077
CCGCAGCAAUAUUACGCACA | -2.51 ± 0.19 | -1.48 ± 0.17
CCGCAGCAAUAUUACGCAGC | -3.86 ± 0.28 | -1.62 ± 0.19
CCGCAGCAAUAUUACGCGGC | -4.42 ± 0.42 | -2.55 ± 0.29
CCGCAGCAAUAUUACGGAAU | -4.02 ± 0.25 | -2.89 ± 0.34
CCGCAGCAAUAUUACGGGCA | -2.72 ± 0.17 | -2.43 ± 0.18
CCGCAGCAAUAUUACGGGGC | -3.25 ± 0.24 | -2.21 ± 0.28
CCGCAGCAAUAUUACGGGGU | -3.54 ± 0.14 | -2.21 ± 0.13
CCGCAGCAAUAUUACGUCUG | -3.34 ± 0.17 | -3.13 ± 0.18
CCGCAGCAAUAUUACGUGGU | -3.29 ± 0.13 | -2.25 ± 0.13
CCGCAGCAAUAUUACGUUUC | -3.08 ± 0.31 | -2.93 ± 0.29
CCGGAGCAAUAUUACGAAGU | -4.05 ± 0.26 | -1.53 ± 0.23
CCGGAGCAAUAUUACGAGCA | – | -0.395 ± 0.25

Sequence | self-splicing fitness (ln) (30 °C) | self-splicing fitness (ln) (37 °C)
CCGGAGCAAUAUUACGCAAC | -1.66 ± 0.4 | -2.92 ± 0.47
CCGGAGCAAUAUUACGCAGC | – | -2.52 ± 0.37
CCGGAGCAAUAUUACGCCCA | -3.21 ± 0.32 | -2.06 ± 0.43
CCGGAGCAAUAUUACGCGUU | -2.5 ± 0.28 | -2.28 ± 0.24
CCGGAGCAAUAUUACGCUUU | -4.14 ± 0.3 | -2.47 ± 0.17
CCGGAGCAAUAUUACGGCCU | -4.41 ± 0.28 | -3.79 ± 0.23
CCGGAGCAAUAUUACGGGAG | -3.98 ± 0.27 | -2.13 ± 0.26
CCGGAGCAAUAUUACGGGGA | -2.97 ± 0.2 | -2.73 ± 0.3
CCGGAGCAAUAUUACGGUCA | -4.22 ± 0.47 | –
CCGGAGCAAUAUUACGGUGU | -3.21 ± 0.16 | -2.13 ± 0.19
CCGGAGCAAUAUUACGGUUU | -3.33 ± 0.25 | -2.55 ± 0.18
CCGGAGCAAUAUUACGUAAU | -3.95 ± 0.15 | -3.36 ± 0.23
CCGGAGCAAUAUUACGUACG | -0.407 ± 0.14 | -0.609 ± 0.18
CCGGAGCAAUAUUACGUCAG | -1.42 ± 0.12 | -1.17 ± 0.15
CCGGAGCAAUAUUACGUGUC | -3.36 ± 0.14 | -2.82 ± 0.14
CCGGAGCAAUAUUACGUUAA | -2.42 ± 0.26 | -1.93 ± 0.41
CCGGAGCAAUAUUACGUUAG | -1.47 ± 0.078 | -0.769 ± 0.11
CCGGAGCAAUAUUACGUUCU | -1.23 ± 0.14 | –
CCGGAGCAAUAUUACGUUUU | -3.67 ± 0.3 | -2.6 ± 0.38
CCGUAGCAAUAUUACGACCG | -0.302 ± 0.12 | 0.31 ± 0.2
CCGUAGCAAUAUUACGAGCA | – | -1.37 ± 0.33
CCGUAGCAAUAUUACGAGGU | -3.33 ± 0.19 | -2.46 ± 0.22
CCGUAGCAAUAUUACGAGUU | -3.11 ± 0.15 | -3.07 ± 0.18
CCGUAGCAAUAUUACGAUAG | -1.22 ± 0.29 | -0.918 ± 0.18
CCGUAGCAAUAUUACGCCGA | -2.64 ± 0.22 | -1.99 ± 0.19

Sequence | self-splicing fitness (ln) (30 °C) | self-splicing fitness (ln) (37 °C)
CCGUAGCAAUAUUACGCCGC | -3.84 ± 0.26 | -2.68 ± 0.34
CCGUAGCAAUAUUACGCGUC | -3.42 ± 0.15 | -1.78 ± 0.15
CCGUAGCAAUAUUACGGGGU | -3.96 ± 0.24 | -1.71 ± 0.2
CCGUAGCAAUAUUACGGUAC | -3.37 ± 0.3 | –
CCGUAGCAAUAUUACGUAAA | -3.22 ± 0.13 | -2.38 ± 0.23
CCGUAGCAAUAUUACGUCUU | -4.01 ± 0.34 | -2.96 ± 0.23
CCGUAGCAAUAUUACGUGUG | -2.36 ± 0.095 | -1.06 ± 0.082
CCGUAGCAAUAUUACGUGUU | -3.35 ± 0.2 | -2.47 ± 0.18
CCGUAGCAAUAUUACGUUUG | -1 ± 0.081 | -0.134 ± 0.096
CCUAAGCAAUAUUACGAAAG | -1.75 ± 0.18 | 0.000192 ± 0.18
CCUAAGCAAUAUUACGAAUU | -3.89 ± 0.22 | -1.79 ± 0.21
CCUAAGCAAUAUUACGACGA | -2.67 ± 0.24 | -2.1 ± 0.38
CCUAAGCAAUAUUACGACGU | -3.61 ± 0.29 | -2.17 ± 0.22
CCUAAGCAAUAUUACGAGGA | -1.99 ± 0.15 | -1.85 ± 0.13
CCUAAGCAAUAUUACGAGUU | -4.08 ± 0.2 | -2.22 ± 0.14
CCUAAGCAAUAUUACGAUGA | -3.09 ± 0.21 | -1.84 ± 0.18
CCUAAGCAAUAUUACGCAUU | -3.56 ± 0.29 | -2.2 ± 0.27
CCUAAGCAAUAUUACGCCAG | -2.8 ± 0.26 | -2.13 ± 0.29
CCUAAGCAAUAUUACGCCAU | -4.47 ± 0.46 | -2.48 ± 0.34
CCUAAGCAAUAUUACGCCCG | -2.22 ± 0.22 | -0.795 ± 0.26
CCUAAGCAAUAUUACGCCGG | -3.61 ± 0.24 | -2.57 ± 0.21
CCUAAGCAAUAUUACGCCUA | -2.7 ± 0.21 | -2.24 ± 0.28
CCUAAGCAAUAUUACGCGUC | -3.25 ± 0.16 | -1.95 ± 0.17
CCUAAGCAAUAUUACGCUGU | -3.8 ± 0.33 | -2.61 ± 0.33
CCUAAGCAAUAUUACGGCAG | -2.09 ± 0.084 | -1.21 ± 0.098

Sequence | self-splicing fitness (ln) (30 °C) | self-splicing fitness (ln) (37 °C)
CCUAAGCAAUAUUACGGCCA | -2.55 ± 0.22 | -2.58 ± 0.26
CCUAAGCAAUAUUACGGCGU | -4.15 ± 0.3 | -2.49 ± 0.24
CCUAAGCAAUAUUACGGCUA | -3.69 ± 0.47 | -3.14 ± 0.25
CCUAAGCAAUAUUACGGCUU | -3.04 ± 0.15 | -3.04 ± 0.21
CCUAAGCAAUAUUACGGGAC | -3.86 ± 0.23 | -2.7 ± 0.22
CCUAAGCAAUAUUACGGGUA | -2.36 ± 0.27 | -1.67 ± 0.25
CCUAAGCAAUAUUACGGUAG | -1.27 ± 0.078 | -0.941 ± 0.097
CCUAAGCAAUAUUACGUCCA | -3.28 ± 0.25 | -2.1 ± 0.41
CCUAAGCAAUAUUACGUGGA | -2.73 ± 0.15 | -2.55 ± 0.28
CCUAAGCAAUAUUACGUGGC | -3.59 ± 0.18 | -2.85 ± 0.19
CCUAAGCAAUAUUACGUUGA | -3.74 ± 0.25 | -1.94 ± 0.17
CCUCAGCAAUAUUACGAAUC | -3.45 ± 0.28 | -2.82 ± 0.31
CCUCAGCAAUAUUACGACAU | -3.84 ± 0.024 | -2.84 ± 0.039
CCUCAGCAAUAUUACGACCC | -2.75 ± 0.38 | -2.41 ± 0.49
CCUCAGCAAUAUUACGAGAA | -3.3 ± 0.41 | -2.28 ± 0.29
CCUCAGCAAUAUUACGAGGC | – | -2.19 ± 0.31
CCUCAGCAAUAUUACGAGUG | -2.34 ± 0.14 | -0.953 ± 0.14
CCUCAGCAAUAUUACGAUGC | -4.19 ± 0.24 | -2.15 ± 0.3
CCUCAGCAAUAUUACGCAAG | -3.31 ± 0.17 | -1.71 ± 0.14
CCUCAGCAAUAUUACGCACU | -3.26 ± 0.18 | -1.63 ± 0.2
CCUCAGCAAUAUUACGCCCA | -3.18 ± 0.22 | -3.5 ± 0.39
CCUCAGCAAUAUUACGCUGA | -2.75 ± 0.35 | -3.12 ± 0.47
CCUCAGCAAUAUUACGCUUG | -4.31 ± 0.37 | -2.52 ± 0.23
